From US20210324003A1

Key:
MT145K gp120 monomer = test: ELISA; set-up: unit not given beside the values
[1] = target: MT145K SOSIP.664 trimer (MT145 Q171K); test: ELISA; set-up: unit not given beside the values
[2] = target: CRF250 SOSIP trimer (HIV-1 (subtype AG)); test: method not stated

| Substance | EC50 (MT145K gp120 monomer) | EC50 [1] | Kd [2] [nM] |
| --- | --- | --- | --- |
| PG9 | 0.792 ? |  |  |
| CH01 | 10 ? | 0.187 ? |  |
| CH01 UCA BCR (antibody) |  |  | 100 |
